{"source": "paper PMC5907806", "about": "(Nature, 2017)", "key": {"[1]": {"target": "T1, RNA polymerase II (12-subunit);Rad26 (Saccharomyces cerevisiae;Saccharomyces …, UniProt P04050;P08518;P16370;P20433;P20434;P20435;P34087;P20436;P27999;P22139;P38902;P40 …, |)", "assay": "EMSA"}, "[2]": {"target": "T1, RNA polymerase II (12-subunit);Rad26", "assay": "EMSA", "remark": "listed apart in the source"}, "[3]": {"target": "T1, RNA polymerase II (12-subunit);Rad26", "assay": "EMSA", "remark": "listed apart in the source"}, "[4]": {"target": "T1, RNA polymerase II (12-subunit);Rad26", "assay": "EMSA", "remark": "listed apart in the source"}, "[5]": {"target": "T1, RNA polymerase II (12-subunit);Rad26", "assay": "EMSA", "remark": "listed apart in the source"}, "[6]": {"target": "T1, RNA polymerase II (12-subunit);Rad26", "assay": "EMSA", "remark": "listed apart in the source"}, "[7]": {"target": "Rpb2 subunit of S. cerevisiae RNA polymerase II (S. cerevisiae, UniProt P08518 1-1224)", "sequence (P08518 whole entry)": "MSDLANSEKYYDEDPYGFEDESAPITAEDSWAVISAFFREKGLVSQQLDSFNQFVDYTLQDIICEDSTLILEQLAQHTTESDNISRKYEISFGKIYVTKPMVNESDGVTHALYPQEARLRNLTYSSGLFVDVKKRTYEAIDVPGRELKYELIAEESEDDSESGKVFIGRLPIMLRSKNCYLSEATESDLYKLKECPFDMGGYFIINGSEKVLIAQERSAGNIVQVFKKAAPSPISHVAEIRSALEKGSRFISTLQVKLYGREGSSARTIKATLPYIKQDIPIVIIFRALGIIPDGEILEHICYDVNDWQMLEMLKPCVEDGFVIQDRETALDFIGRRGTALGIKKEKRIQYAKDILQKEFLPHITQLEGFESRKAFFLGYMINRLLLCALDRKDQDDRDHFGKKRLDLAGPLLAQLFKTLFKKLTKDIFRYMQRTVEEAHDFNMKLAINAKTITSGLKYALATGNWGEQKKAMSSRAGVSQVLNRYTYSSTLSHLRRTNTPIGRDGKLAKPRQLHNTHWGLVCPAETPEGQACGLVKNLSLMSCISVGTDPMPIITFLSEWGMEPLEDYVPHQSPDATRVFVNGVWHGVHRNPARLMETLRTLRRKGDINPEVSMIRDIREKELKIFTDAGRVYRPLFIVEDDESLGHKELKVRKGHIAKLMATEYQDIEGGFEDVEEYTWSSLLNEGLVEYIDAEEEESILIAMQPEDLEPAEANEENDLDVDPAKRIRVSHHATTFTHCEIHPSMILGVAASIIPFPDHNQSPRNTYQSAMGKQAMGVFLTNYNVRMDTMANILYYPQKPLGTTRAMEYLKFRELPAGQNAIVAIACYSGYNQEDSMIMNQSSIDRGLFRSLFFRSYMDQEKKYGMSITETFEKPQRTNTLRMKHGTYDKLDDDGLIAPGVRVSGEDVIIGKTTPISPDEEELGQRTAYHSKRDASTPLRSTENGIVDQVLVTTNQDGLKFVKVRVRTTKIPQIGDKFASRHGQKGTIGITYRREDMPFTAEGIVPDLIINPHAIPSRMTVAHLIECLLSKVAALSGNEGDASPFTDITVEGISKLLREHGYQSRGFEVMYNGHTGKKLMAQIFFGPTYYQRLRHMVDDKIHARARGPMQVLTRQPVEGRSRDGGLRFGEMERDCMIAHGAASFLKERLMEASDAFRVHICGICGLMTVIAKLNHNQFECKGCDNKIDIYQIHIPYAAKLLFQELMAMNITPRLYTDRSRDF", "assay": "cryo-EM structure"}}, "note": "Like-named read-outs stand apart in the source and are kept apart here.", "data": [{"binder": "non-damaged TT scaffold (mixed) DNA 1: CGAGCAGATCTCATAGCCCATTCCTACTAAGGAGAAGGAGCAGAGCG DNA 2: CGCTCTGCTCCTTCTCCTTTCCTCTCGATGGCTATGAGATCTGCTCG RNA: AUCGAGAGGA", "values": [{"measurement": "binding result", "setting": "[1]", "value": "binds"}]}, {"binder": "CPD lesion scaffold (mixed, CPD at TT of TS (nt 18-19)) DNA 1: CGAGCAGATCTCATAGCCCATTCCTACTAAGGAGAAGGAGCAGAGCG DNA 2: CGCTCTGCTCCTTCTCCTTTCCTCTCGATGGCTATGAGATCTGCTCG RNA: AUCGAGAGGA", "values": [{"measurement": "binding result", "setting": "[2]", "value": "binds"}]}, {"binder": "AT-rich upstream fork scaffold (mixed) DNA 1: CGAGCAGATCTCATATTTCATTCCTACTTGGGAGAAGGAGCAGAGCG DNA 2: CGCTCTGCTCCTTCTCCCATCCTCTCGATAAATATGAGATCTGCTCG RNA: AUCGAGAGGA", "values": [{"measurement": "binding result", "setting": "[3]", "value": "binds"}]}, {"binder": "3+10 bubble scaffold (mixed) DNA 1: CGAGCAGATCTCATATTTCATTCCTACTTGGGAGAAGGAGCAGAGCG DNA 2: CGCTCTGCTCCTTCTCCCATCCTCTCGATGGCTATGAGATCTGCTCG RNA: AUCGAGAGGA", "values": [{"measurement": "binding result", "setting": "[4]", "value": "binds"}]}, {"binder": "10+3 bubble scaffold (mixed) DNA 1: CGAGCAGATCTCATAGCCCATTCCTACTCATGAGAAGGAGCAGAGCG DNA 2: CGCTCTGCTCCTTCTCCCATCCTCTCGATGGCTATGAGATCTGCTCG RNA: AUCGAGAGGA", "values": [{"measurement": "binding result", "setting": "[5]", "value": "binds"}]}, {"binder": "3+10+3 bubble scaffold (mixed) DNA 1: CGAGCAGATCTCATATTTCATTCCTACTCATGAGAAGGAGCAGAGCG DNA 2: CGCTCTGCTCCTTCTCCCATCCTCTCGATGGCTATGAGATCTGCTCG RNA: AUCGAGAGGA", "values": [{"measurement": "binding result", "setting": "[6]", "value": "binds"}]}, {"binder": "Saccharomyces cerevisiae Rad26 (natural protein, S. cerevisiae, UniProt P40352 1-1085, looked up) MEDKEQQDNAKLENNESLKDLGVNVLSQSSLEEKIANDVTNFSNLQSLQQEETRLERSKTALQRYVNKKNHLTRKLNNTTRISVKQNLRDQIKNLQSDDIERVLKDIDDIQSRIKELKEQVDQGAENKGSKEGLQRPGETEKEFLIRTGKITAFGHKAGFSLDTANREYAKNDEQKDEDFEMATEQMVENLTDEDDNLSDQDYQMSGKESEDDEEEENDDKILKELEDLRFRGQPGEAKDDGDELYYQERLKKWVKQRSCGSQRSSDLPEWRRPHPNIPDAKLNSQFKIPGEIYSLLFNYQKTCVQWLYELYQQNCGGIIGDEMGLGKTIQVIAFIAALHHSGLLTGPVLIVCPATVMKQWCNEFQHWWPPLRTVILHSMGSGMASDQKFKMDENDLENLIMNSKPSDFSYEDWKNSTRTKKALESSYHLDKLIDKVVTDGHILITTYVGLRIHSDKLLKVKWQYAVLDEGHKIRNPDSEISLTCKKLKTHNRIILSGTPIQNNLTELWSLFDFIFPGKLGTLPVFQQQFVIPINIGGYANATNIQVQTGYKCAVALRDLISPYLLRRVKADVAKDLPQKKEMVLFCKLTKYQRSKYLEFLHSSDLNQIQNGKRNVLFGIDILRKICNHPDLLDRDTKRHNPDYGDPKRSGKMQVVKQLLLLWHKQGYKALLFTQSRQMLDILEEFISTKDPDLSHLNYLRMDGTTNIKGRQSLVDRFNNESFDVFLLTTRVGGLGVNLTGANRIIIFDPDWNPSTDMQARERAWRIGQKREVSIYRLMVGGSIEEKIYHRQIFKQFLTNRILTDPKQKRFFKIHELHDLFSLGGENGYSTEELNEEVQKHTENLKNSKSEESDDFEQLVNLSGVSKLESFYNGKEKKENSKTEDDRLIEGLLGGESNLETVMSHDSVVNSHAGSSSSNIITKEASRVAIEAVNALRKSRKKITKQYEIGTPTWTGRFGKAGKIRKRDPLKNKLTGSAAILGNITKSQKEASKEARQENYDDGITFARSKEINSNTKTLENIRAYLQKQNNFFSSSVSILNSIGVSLSDKEDVIKVRALLKTIAQFDKERKGWVLDEEFRNNNAS", "values": [{"measurement": "binding result", "setting": "[7]", "value": "binds"}]}]}
